Measured values taken from article PMC4424349, “The Plasmodium Class XIV Myosin, MyoB, Has a Distinct Subcellular Location in Invasive and Motile Stages of the Malaria Parasite and an Unusual Light Chain*” (The Journal of Biological Chemistry, 2015).

Molecular target: T1, PfMLC-B C-terminal domain (MLC-B CTD), residues 497-652 (Plasmodium falciparum, UniProt Q8III1 497-652)
T1 construct: Myosin light chain B (MLC-B), Plasmodium falciparum 3D7, PlasmoDB PF3D7_1118700; C-terminal 156 amino acids, residues 497-652 (3' 471 bp of mlc-b cDNA, primers 27 and 28); Cloned into BamHI/XhoI of pGEX6P1; a few vector residues may remain after PreScission cleavage; also called PfMLC-B CTD; calmodulin-like C-terminal domain; source: E. coli BL21 Gold, purified (glutathione-Sepharose, PreScission …)
T1 sequence: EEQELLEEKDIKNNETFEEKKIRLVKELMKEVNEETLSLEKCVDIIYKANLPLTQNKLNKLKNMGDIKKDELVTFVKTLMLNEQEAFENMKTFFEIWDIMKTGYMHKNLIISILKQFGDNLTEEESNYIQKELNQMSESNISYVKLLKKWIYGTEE
Assay: thermal unfolding monitored by CD at 222 nm; MLC-B CTD alone or with 1.5- or 3-fold molar excess of peptide; heating 1 °C/min, 20-90 °C
Conditions: both partners purified

B1: Myosin B peptide Asn780 to His800 (peptide)
peptide: Ac-NIKNLQLAQAYFRKYKYIKEH-NH2
notes: Myosin B (MyoB), Plasmodium falciparum, residues 780-800; also called Asn780 to His800 peptide; peptide from the extreme C terminus of MyoB; source: synthetic peptide
- Tm of MLC-B CTD with a 1.5-fold molar excess of the peptide (59 °C without peptide): 67 °C
- Tm of MLC-B CTD with a 3-fold molar excess of the peptide (59 °C without peptide): 70 °C
